# Values of other authors, collected in article PMC6540150.
# Biological target: SOUL BH3 (Homo sapiens) (UniProt Q9Y5Z4)
substance,measurement,value
Bcl-xL (from UniProt Q07817),Kd,40 µM
